From PMC10602865, “Cleavage kinetics of human mitochondrial RNase P and contribution of its non-nuclease subunits” come the findings set out here.

The target of series [1] is T1, PRORP (MRPP3) (Homo sapiens, UniProt O15091 46-583).
T1 sequence: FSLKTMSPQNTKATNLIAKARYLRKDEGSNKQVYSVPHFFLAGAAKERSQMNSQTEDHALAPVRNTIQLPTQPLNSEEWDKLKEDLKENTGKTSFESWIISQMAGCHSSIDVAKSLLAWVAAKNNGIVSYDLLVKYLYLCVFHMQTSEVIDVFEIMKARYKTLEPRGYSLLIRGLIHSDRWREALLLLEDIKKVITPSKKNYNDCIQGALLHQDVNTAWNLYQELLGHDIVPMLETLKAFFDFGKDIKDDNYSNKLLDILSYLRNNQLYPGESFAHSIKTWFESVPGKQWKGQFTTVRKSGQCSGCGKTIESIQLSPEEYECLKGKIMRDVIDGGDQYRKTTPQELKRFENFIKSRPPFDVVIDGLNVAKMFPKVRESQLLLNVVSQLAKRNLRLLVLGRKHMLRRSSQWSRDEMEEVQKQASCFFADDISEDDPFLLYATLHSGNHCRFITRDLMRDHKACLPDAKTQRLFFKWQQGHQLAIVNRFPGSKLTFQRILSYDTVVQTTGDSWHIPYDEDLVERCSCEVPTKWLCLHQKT
The series is described as follows: BLI; no Mg2+; BLI (BLItz, streptavidin sensors): 50 mM Tris-Cl pH 8, 20 mM NaCl, 2 mM DTT, 20 ug/ml BSA, 0.5 U/ul RNase inhibitor, 0.05% Tween-20, with (Lys) or without 4.5 mM MgCl2, 21 C. The following applies: protein: recombinant; tags: C-terminal His6; label: 3' biotin (pCp-biotin); tRNA cloverleaf.

The target in series [2] is T2, TRMT10C (MRPP1) (Homo sapiens, UniProt Q7L0Y3 40-403).
T2 sequence: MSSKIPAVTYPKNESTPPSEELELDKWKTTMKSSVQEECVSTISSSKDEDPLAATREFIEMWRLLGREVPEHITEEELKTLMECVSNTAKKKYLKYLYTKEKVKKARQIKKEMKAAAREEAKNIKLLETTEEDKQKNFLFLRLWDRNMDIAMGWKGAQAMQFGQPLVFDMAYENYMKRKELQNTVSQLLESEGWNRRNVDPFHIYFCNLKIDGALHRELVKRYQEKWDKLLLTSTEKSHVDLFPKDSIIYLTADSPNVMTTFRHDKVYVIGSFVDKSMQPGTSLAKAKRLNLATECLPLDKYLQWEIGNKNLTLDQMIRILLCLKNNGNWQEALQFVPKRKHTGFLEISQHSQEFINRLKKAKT
The series is described as above. The following applies: protein: recombinant; tags: C-terminal myc-His6; chain copies: 2; label: 3' biotin (pCp-biotin); tRNA cloverleaf.

Series [3] addresses T3, TRMT10C (MRPP1);SDR5C1 (MRPP2, HSD17B10) (Homo sapiens;Homo sapiens, UniProt Q7L0Y3;Q99714 40-403;1-261, |).
T3 sequence 1: T2 sequence
T3 sequence 2: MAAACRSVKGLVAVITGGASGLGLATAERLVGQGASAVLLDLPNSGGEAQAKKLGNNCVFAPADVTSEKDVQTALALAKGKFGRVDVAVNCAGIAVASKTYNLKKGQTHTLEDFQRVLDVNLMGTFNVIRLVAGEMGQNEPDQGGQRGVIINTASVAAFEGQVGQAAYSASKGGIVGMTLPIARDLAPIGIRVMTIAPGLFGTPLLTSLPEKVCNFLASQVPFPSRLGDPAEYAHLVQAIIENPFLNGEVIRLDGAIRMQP
The description is as above. As to conditions: protein: recombinant;recombinant; tags: C-terminal myc-His6;N-terminal His6; copies: 1;4; label: 3' biotin (pCp-biotin); tRNA cloverleaf.

Series [4] addresses T4, SDR5C1 (MRPP2, HSD17B10) (Homo sapiens, UniProt Q99714 1-261).
T4 sequence: T3 sequence 2
The series is described as follows: BLI; no Mg2+; up to 1 uM SDR5C1; BLI (BLItz, streptavidin sensors): 50 mM Tris-Cl pH 8, 20 mM NaCl, 2 mM DTT, 20 ug/ml BSA, 0.5 U/ul RNase inhibitor, 0.05% Tween-20, with (Lys) or without 4.5 mM MgCl2, 21 C. The following applies: protein: recombinant; tags: N-terminal His6; chain copies: 4; label: 3' biotin (pCp-biotin); tRNA cloverleaf.

Series [5] concerns the target T4, SDR5C1 (MRPP2, HSD17B10). The series is described as follows: BLI; 4.5 mM Mg2+; up to 1 uM SDR5C1; BLI (BLItz, streptavidin sensors): 50 mM Tris-Cl pH 8, 20 mM NaCl, 2 mM DTT, 20 ug/ml BSA, 0.5 U/ul RNase inhibitor, 0.05% Tween-20, with (Lys) or without 4.5 mM MgCl2, 21 C. As to conditions: protein: recombinant; tags: N-terminal His6; chain copies: 4; label: 3' biotin (pCp-biotin); tRNA cloverleaf.

The target of series [6] is T1, PRORP (MRPP3). The series is described as follows: BLI; 4.5 mM Mg2+; BLI (BLItz, streptavidin sensors): 50 mM Tris-Cl pH 8, 20 mM NaCl, 2 mM DTT, 20 ug/ml BSA, 0.5 U/ul RNase inhibitor, 0.05% Tween-20, with (Lys) or without 4.5 mM MgCl2, 21 C. The following applies: protein: recombinant; tags: C-terminal His6; label: 3' biotin (pCp-biotin); tRNA cloverleaf.
In series [7] the target is T2, TRMT10C (MRPP1). The series is described as above. As to conditions: protein: recombinant; tags: C-terminal myc-His6; chain copies: 2; label: 3' biotin (pCp-biotin); tRNA cloverleaf.
The target of series [8] is T3, TRMT10C (MRPP1);SDR5C1 (MRPP2, HSD17B10). The series is described as above. The following applies: protein: recombinant;recombinant; tags: C-terminal myc-His6;N-terminal His6; copies: 1;4; label: 3' biotin (pCp-biotin); tRNA cloverleaf.

B1: pre-tRNAVal, 3'-biotinylated (structured_RNA)
RNA: UGCACUUGGACGAACCAGAGUGUAGCUUAACACAAAGCACCCAACUUACACUUAGGAGAUUUCAACUUAACUUGACCGCUCUGAGCUAAACCUAGCCCCAAACCCACUCCACCUUA
modifications: splint ligation of synthetic RNA (15 nt 5' flank + tRNA nt 1-8) to transcript of 1610-1702; 3' pCp-biotin adds a C
As to B1, the Kd was found to be 18 nM in series [1], 20 nM in series [2] and 13 nM in series [3]. Besides, the binding result in series [4] was “no binding”.

B2: pre-tRNALys, 3'-biotinylated (structured_RNA)
RNA: ACCCCCUCUAGAGCCCACUGUAAAGCUAACUUAGCAUUAACCUUUUAAGUUAAAGAUUAAGAGAACCAACACCUCUUUACAGUGAAAUGCCCCAAC
modifications: splint ligation of synthetic RNA (15 nt 5' flank + tRNA nt 1-8) to transcript of 8303-8375; 3' pCp-biotin adds a C
Turning to B2, the binding result in series [5] is “no binding”. Further, the Kd in series [6] stood at 26 nM; in series [7] it was 30 nM; in series [8] it was 4 nM.
